Assays:
[1] = target: T1, streptavidin-Cy3 from Streptomyces avidinii (S6420 SIGMA-ALDRICH) (Streptomyces avidinii, UniProt P22629 37-163, limits assumed, Cy3 label); assay: microarray on maleimide glass carrying the protein G variant, fluorescence scanner
T1 construct: Control protein of the microarray experiment; also called control
Protocol: A glass surface was immersed in a piranha solution (sulfuric acid:hydrogen peroxide, 3:1 v/v) and allowed to react in an oven at 90° C. for 20 minutes. After the reaction, the glass surface was washed with water and ethanol, and then was immersed in ethanol containing 1% APTS ((3-Aminopropyl)trimethoxysilane, 09326, SIGMA-ALDRICH) for 15 to 20 minutes to react, so as to provide an aminated surface. After completion of the reaction, the glass surface was washed with ethanol, and subsequently heated in an oven at 100° C. until the time of use. The prepared aminated surface was immersed in a 10 mM solution of BMPS (N-[b-Maleimidopropyloxy]succinimide ester, 22298, PIERCE, USA) dissolved in DMSO (dimethyl sulfoxide, D2650, SIGMA-ALDRICH) to react for about 30 minutes. The maleimide groups provided on the final glass surface, which groups would be covalently bonded to SH groups, were reacted with Streptococcal protein G variants tagged with one, two or three cysteine residues on the glass surface to immobilize the protein. On the surface where a series of Streptococcal protein G variants were immobilized, an antibody labeled with a fluorescent labeling substance, monoclonal anti-biotin Cy3 (C5585, SIGMA-ALDRICH), and a control, streptavidin-Cy3 (streptavidin-Cy3 from Streptomyces avidinii, S6420 SIGMA-ALDRICH) were arranged into an array using a microarrayer, and then the degree of specific protein binding and the effect of non-specific binding were measured using a fluorescence scanner. As a result, no fluorescent signal of Streptavidin-Cy3 (1 mg/ml) was detected, and since the fluorescent signal increased with an increase in the concentration of the antibody, Monoclonal anti-biotin Cy3, it was confirmed that the antibody reactions with Streptococcal protein G variants tagged with one, two and three cysteine residues were specifically achieved. Also, when the antibody was reacted after allowing the Streptococcal protein G variants to react at the same concentration, the reaction occurred at a low concentration of the antibody with a high binding power. […]

[2] = target: T2, anti-human Kallikrein 3/PSA antibody (R&D systems); assay: SPR (BIAcore); protein G variant layer on gold thin film, anti-PSA antibody 0.5 ug/ml injected
T2 construct: also called antibody against PSA
Protocol: Then, antigens (Recombinant Human kallikrein 3/PSA, 0.5 μg/ml) were reacted with the antibodies. As a result, the change in the surface plasmon resonance signals of the untagged recombinant protein increased by 7 RU, the same change of the recombinant protein tagged with one cysteine residue increased by 49 RU, the same change of the recombinant protein tagged with two cysteine residues increased by 41 RU, and the same change of the recombinant protein tagged with three cysteine residues increased by 74 RU.
A gold thin film chip was treated with a mixed solution (65° C.) of 95% sulfuric acid and 30% aqueous hydrogen peroxide (volume ratio 3:1) for 30 minutes, and then the chip was washed sequentially with double distilled water, ethanol and double distilled water. Subsequently, the chip was dried with nitrogen gas and mounted on a BIA-core surface plasmon resonance sensor. 150 μl each of 200 μg/ml solutions of recombinant proteins tagged with one, two and three cysteine residues, respectively, and of an untagged recombinant protein (control) were introduced to the gold thin film surface of the mounted chip at a flow rate of 5 μl/min, so as to immobilize the proteins. After reacting the gold thin film surface and the aforementioned proteins, 100 μl of BSA (3 mg/ml) was introduced at a flow rate of 5 μl/min to prevent non-specific reactions. Subsequently, 100 μl of an antibody (0.5 μg/ml, anti-human Kallikrein 3/PSA antibody, R&D systems) was introduced at a flow rate of 5 μl/min, and the biosensor with immobilized antibody and 50 μl of an antigen (0.5 μg/ml, Recombinant Human Kallikrein 3/PSA) were allowed to react. Then, changes in the plasmon resonance signal was detected (FIG. 8).

human IgG (Sigma) = target: T3, human IgG (Sigma) (human); assay: SPR (BIAcore); protein G variant layer on gold thin film, human IgG 100 ug/ml injected
T3 construct: also called human antibody; antibody (100 µg/ml, human IgG, Sigma)
Protocol: A gold thin film chip was treated with a mixed solution (65° C.) of 95% sulfuric acid and 30% aqueous hydrogen peroxide (volume ratio 3:1) for 30 minutes, and then the chip was washed sequentially with double distilled water, ethanol and double distilled water. Subsequently, the chip was dried with nitrogen gas and mounted on a BIA-core surface plasmon resonance sensor. 150 μl each of 200 μg/ml solutions of recombinant proteins tagged with one, two and three cysteine residues, respectively, and of an untagged recombinant protein were introduced to the gold thin film surface of the mounted chip at a flow rate of 5 μl/min, so as to immobilize the proteins. After reacting the gold thin film surface and the aforementioned proteins, 100 μl of BSA (3 mg/ml) was introduced at a flow rate of 5 μl/min to prevent non-specific reactions. Subsequently, 100 μl of an antibody (100 μg/ml, human IgG, Sigma) was introduced at a flow rate of 5 μl/min to produce a biosensor in which protein G variant and the antibody were immobilized on a gold thin film, and the changes in the plasmon resonance signals were measured (FIG. 5).

Binder | binding result [1] | change in surface plasmon resonance signal [2] | change in surface plasmon resonance signal (human IgG (Sigma)) | fold increase of SPR signal change against the untagged recombinant protein (human IgG (Sigma))
Streptococcal protein G variant tagged with three cysteine residues at the N-terminus (other, Immobilised by its thiol groups on gold film, gold nano-particles or maleimide glass; also called cys3-G; protein produced from plasmid pET-cys3-L-proteinG) MCCCDDDDKLKGETTTEAVDAATAEKVFKQYANDNGVDGEWTYDDATKTFTVTETYKLVIDGKTLKGETTTKAVDAETAEKAFKQYADDDGVDGVWTYDDATKTFTVTEHHHHHH | no binding (tested: 1 mg/ml) | 491 RU | 4800 RU | ~4.8 times
Streptococcal protein G variant tagged with two cysteine residues at the N-terminus (other, Immobilised by its thiol groups on gold film, gold nano-particles or maleimide glass; also called cys2-G; protein produced from plasmid pET-cys2-L-proteinG) MCCDDDDKLKGETTTEAVDAATAEKVFKQYANDNGVDGEWTYDDATKTFTVTETYKLVIDGKTLKGETTTKAVDAETAEKAFKQYADDDGVDGVWTYDDATKTFTVTEHHHHHH | no binding (tested: 1 mg/ml) | 376 RU | 3200 RU | ~3.2 times
Streptococcal protein G variant tagged with one cysteine residue at the N-terminus (other, Immobilised by its thiol group on gold film, gold nano-particles or maleimide glass; also called cys1-G; protein produced from plasmid pET-cys1-L-proteinG) MCDDDDKLKGETTTEAVDAATAEKVFKQYANDNGVDGEWTYDDATKTFTVTETYKLVIDGKTLKGETTTKAVDAETAEKAFKQYADDDGVDGVWTYDDATKTFTVTEHHHHHH | no binding (tested: 1 mg/ml) | 472 RU | 4000 RU | ~4 times
